Patent US20110142868A1 (CHIRALIX B V, published 2011)
Numbered stars: 1 amine (or outer) side, 2 acyl side, 3 side chain; on linkers, the order of the positions; unused ones are H or OH. Square brackets hold non-standard residues; d marks the D form. Ends that are not written are not given here. * marks the point of attachment. O(CA) = ornithine chloroamidine, N=C(CCl)NCCC[C@H](N[*:1])C(=O)[*:2]; Orn(fluoroacetimidoyl) = N=C(CF)NCCC[C@H](N)C(=O)O; Moc = COC(=O)*

Assays:
Experiment in all cases: cell-based or functional assay
recombinant human PAD2 [1] = biological target: T1, recombinant human PAD2 (human, UniProt Q9Y2J8 1-665)
recombinant human PAD4 [2] = biological target: T2, recombinant human PAD4 (human, UniProt Q9UM07 1-663)
recombinant human PAD2 [3] = biological target: T1, recombinant human PAD2; remark: listed apart in the source
recombinant human PAD4 [4] = biological target: T2, recombinant human PAD4; remark: listed apart in the source
[5] = biological target: human N(G),N(G)-dimethyl-L-arginine dimethylaminohydrolase isotype 1 (human, UniProt O94760 1-285)
caspase-3 = biological target: caspase-3
creatine kinase = biological target: creatine kinase
transglutaminase = biological target: transglutaminase
papain = biological target: T3, papain (UniProt P00784 134-345)
T3 sequence (looked up): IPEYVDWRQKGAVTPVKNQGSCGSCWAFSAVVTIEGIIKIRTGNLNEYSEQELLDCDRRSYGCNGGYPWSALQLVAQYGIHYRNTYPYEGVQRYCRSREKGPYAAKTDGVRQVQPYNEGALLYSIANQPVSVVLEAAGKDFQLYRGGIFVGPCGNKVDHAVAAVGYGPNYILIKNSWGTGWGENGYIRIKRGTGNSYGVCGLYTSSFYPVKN

recombinant human PAD2 [6] = biological target: T1, recombinant human PAD2; remark: listed apart in the source
recombinant human PAD4 [7] = biological target: T2, recombinant human PAD4; remark: listed apart in the source
recombinant human PAD2 [8] = biological target: T1, recombinant human PAD2; remark: listed apart in the source
recombinant human PAD4 [9] = biological target: T2, recombinant human PAD4; remark: listed apart in the source
recombinant human PAD2 [10] = biological target: T1, recombinant human PAD2; remark: listed apart in the source
recombinant human PAD4 [11] = biological target: T2, recombinant human PAD4; remark: listed apart in the source

T2 sequence (Q9UM07 whole entry): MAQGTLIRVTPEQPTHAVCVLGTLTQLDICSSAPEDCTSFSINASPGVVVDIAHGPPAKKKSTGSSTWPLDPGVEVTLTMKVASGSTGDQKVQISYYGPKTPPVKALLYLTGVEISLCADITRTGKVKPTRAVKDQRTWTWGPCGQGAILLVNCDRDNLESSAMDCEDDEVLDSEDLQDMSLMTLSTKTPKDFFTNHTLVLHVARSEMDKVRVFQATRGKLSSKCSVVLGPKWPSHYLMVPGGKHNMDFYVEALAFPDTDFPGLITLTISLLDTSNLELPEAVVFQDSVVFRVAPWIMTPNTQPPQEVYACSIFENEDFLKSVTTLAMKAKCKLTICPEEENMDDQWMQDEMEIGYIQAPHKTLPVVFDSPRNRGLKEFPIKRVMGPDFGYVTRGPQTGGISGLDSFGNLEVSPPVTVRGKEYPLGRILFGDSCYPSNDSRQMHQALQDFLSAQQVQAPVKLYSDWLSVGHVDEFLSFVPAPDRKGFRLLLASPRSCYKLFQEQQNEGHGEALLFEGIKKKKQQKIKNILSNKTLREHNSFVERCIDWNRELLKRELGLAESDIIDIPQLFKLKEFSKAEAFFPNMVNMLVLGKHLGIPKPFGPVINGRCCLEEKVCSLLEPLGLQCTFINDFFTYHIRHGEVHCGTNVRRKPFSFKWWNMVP
human N(G),N(G)-dimethyl-L-arginine dimethylaminohydrolase isotype 1, sequence (O94760 whole entry): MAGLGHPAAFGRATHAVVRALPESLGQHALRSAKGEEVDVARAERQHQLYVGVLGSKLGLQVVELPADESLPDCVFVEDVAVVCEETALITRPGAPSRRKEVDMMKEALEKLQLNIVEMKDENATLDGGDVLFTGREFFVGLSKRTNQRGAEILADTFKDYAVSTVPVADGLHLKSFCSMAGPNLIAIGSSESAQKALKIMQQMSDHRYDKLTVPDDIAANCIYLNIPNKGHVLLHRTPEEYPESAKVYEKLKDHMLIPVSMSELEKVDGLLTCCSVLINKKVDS
T1 sequence (Q9Y2J8 whole entry): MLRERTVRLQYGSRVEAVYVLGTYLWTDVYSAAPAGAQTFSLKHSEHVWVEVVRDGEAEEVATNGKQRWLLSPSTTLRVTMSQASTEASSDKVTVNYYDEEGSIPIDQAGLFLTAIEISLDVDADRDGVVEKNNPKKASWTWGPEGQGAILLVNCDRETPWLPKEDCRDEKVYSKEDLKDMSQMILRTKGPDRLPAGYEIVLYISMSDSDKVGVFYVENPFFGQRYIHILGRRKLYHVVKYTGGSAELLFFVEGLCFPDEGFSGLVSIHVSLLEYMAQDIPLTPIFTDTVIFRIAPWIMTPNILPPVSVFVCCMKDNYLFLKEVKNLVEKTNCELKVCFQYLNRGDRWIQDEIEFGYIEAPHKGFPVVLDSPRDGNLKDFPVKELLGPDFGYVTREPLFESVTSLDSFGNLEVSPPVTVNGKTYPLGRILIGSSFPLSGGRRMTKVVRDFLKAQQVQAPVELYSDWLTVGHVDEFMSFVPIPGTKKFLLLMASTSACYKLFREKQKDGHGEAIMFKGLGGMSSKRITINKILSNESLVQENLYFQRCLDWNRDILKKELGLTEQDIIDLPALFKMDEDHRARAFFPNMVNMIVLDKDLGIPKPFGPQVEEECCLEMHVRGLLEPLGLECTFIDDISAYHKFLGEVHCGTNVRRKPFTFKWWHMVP

## KFD[Orn(fluoroacetimidoyl)]DFI [K F D O(FA) D F I]
Recombinant human PAD2 [1]
  IC50 values (µM), ABAP PAD activity assay, second round: 17 µM
Recombinant human PAD4 [2]
  IC50 values (µM), ABAP PAD activity assay, second round: 122 µM

B1: CXP5-101 (peptide)
peptide: Moc-TD[Orn(fluoroacetimidoyl)]GS-OMe
SMILES: COC(=O)N[C@H](C(=O)N[C@@H](CC(=O)O)C(=O)N[C@@H](CCCNC(=N)CF)C(=O)NCC(=O)N[C@@H](CO)C(=O)OC)[C@@H](C)O
Recombinant human PAD2 [3]
  IC50 values (µM), colorimetric assay: 35 µM
Recombinant human PAD4 [4]
  IC50 values (µM), colorimetric assay: 10 µM
[5]
  IC50 values (µM), hDDAH-1 activity assay: > 2000 µM
caspase-3
  IC50 values (µM), caspase-3 activity assay: > 1000 µM
Creatine kinase
  IC50 values (µM), creatine kinase activity assay: 780 µM
transglutaminase
  IC50 values (µM), transglutaminase activity assay: 600 µM
papain
  IC50 values (µM), papain activity assay: > 2000 µM

B2: 0743-58FA (peptide)
peptide: Ac-KFD[Orn(fluoroacetimidoyl)]DFI-NH2
SMILES: CC[C@H](C)[C@H](NC(=O)[C@H](Cc1ccccc1)NC(=O)[C@H](CC(=O)O)NC(=O)[C@H](CCCNC(=N)CF)NC(=O)[C@H](CC(=O)O)NC(=O)[C@H](Cc1ccccc1)NC(=O)[C@H](CCCCN)NC(C)=O)C(N)=O
Recombinant human PAD2 [6]
  conversion of 0708-30 by PAD2, 10 µM inhibitor (0 µM: 68): 33%
  conversion of 0708-30 by PAD2, 50 µM inhibitor (0 µM: 68): 8%
  conversion of 0708-30 by PAD2, 100 µM inhibitor (0 µM: 68): 4%
Recombinant human PAD4 [7]
  conversion of 0708-30 by PAD4, 10 µM inhibitor (0 µM: 81): 38%
  conversion of 0708-30 by PAD4, 50 µM inhibitor (0 µM: 81): 19%
  conversion of 0708-30 by PAD4, 100 µM inhibitor (0 µM: 81): 10%
Recombinant human PAD2 [3]
  IC50 values (µM), colorimetric assay: 35 µM
Recombinant human PAD4 [4]
  IC50 values (µM), colorimetric assay: 6 µM
[5]
  IC50 values (µM), hDDAH-1 activity assay: > 2000 µM
caspase-3
  IC50 values (µM), caspase-3 activity assay: 920 µM
Creatine kinase
  IC50 values (µM), creatine kinase activity assay: 800 µM
transglutaminase
  IC50 values (µM), transglutaminase activity assay: 1000 µM
papain
  IC50 values (µM), papain activity assay: > 2000 µM
Recombinant human PAD2 [8]
  Inhibition of PAD2: value at 10 µM inhibitor (0 µM: 74): 39%
  Inhibition of PAD2: value at 20 µM inhibitor (0 µM: 74): 26%
  Inhibition of PAD2: value at 40 µM inhibitor (0 µM: 74): 15%
  Inhibition of PAD2: value at 80 µM inhibitor (0 µM: 74): 9%
Recombinant human PAD4 [9]
  Inhibition of PAD4: value at 10 µM inhibitor (0 µM: 71): 46%
  Inhibition of PAD4: value at 20 µM inhibitor (0 µM: 71): 36%
  Inhibition of PAD4: value at 40 µM inhibitor (0 µM: 71): 18%
  Inhibition of PAD4: value at 80 µM inhibitor (0 µM: 71): 13%

## Ac-YD[O(CA)]GS [CXP5.2-081]
Recombinant human PAD2 [3]
  IC50 values (µM), colorimetric assay: 200 µM
Recombinant human PAD4 [4]
  IC50 values (µM), colorimetric assay: 10 µM
[5]
  IC50 values (µM), hDDAH-1 activity assay: 1330 µM
caspase-3
  IC50 values (µM), caspase-3 activity assay: > 1000 µM
Creatine kinase
  IC50 values (µM), creatine kinase activity assay: 1000 µM
transglutaminase
  IC50 values (µM), transglutaminase activity assay: > 1000 µM
papain
  IC50 values (µM), papain activity assay: > 2000 µM

## TD[Orn(fluoroacetimidoyl)]GS [T-D-O(FA)-G-S]
Recombinant human PAD2 [10]
  IC50 values (µM), ABAP PAD activity assay: 19 µM
Recombinant human PAD4 [11]
  IC50 values (µM), ABAP PAD activity assay: 58 µM
Recombinant human PAD2 [1]
  IC50 values (µM), ABAP PAD activity assay, second round: 49 µM
Recombinant human PAD4 [2]
  IC50 values (µM), ABAP PAD activity assay, second round: 129 µM

## KWH[Orn(fluoroacetimidoyl)]DFF [K W H O(FA) D F F]
Recombinant human PAD2 [1]
  IC50 values (µM), ABAP PAD activity assay, second round: 16 µM
Recombinant human PAD4 [2]
  IC50 values (µM), ABAP PAD activity assay, second round: 161 µM

B3: 0748-09FA (peptide)
peptide: Ac-KWH[Orn(fluoroacetimidoyl)]DFF-NH2
SMILES: CC(=O)N[C@@H](CCCCN)C(=O)N[C@@H](Cc1c[nH]c2ccccc12)C(=O)N[C@@H](Cc1c[nH]cn1)C(=O)N[C@@H](CCCNC(=N)CF)C(=O)N[C@@H](CC(=O)O)C(=O)N[C@@H](Cc1ccccc1)C(=O)N[C@@H](Cc1ccccc1)C(N)=O
Recombinant human PAD2 [6]
  conversion of 0708-30 by PAD2, 10 µM inhibitor (0 µM: 68): 23%
  conversion of 0708-30 by PAD2, 50 µM inhibitor (0 µM: 68): 6%
  conversion of 0708-30 by PAD2, 100 µM inhibitor (0 µM: 68): 5%
Recombinant human PAD4 [7]
  conversion of 0708-30 by PAD4, 10 µM inhibitor (0 µM: 81): 51%
  conversion of 0708-30 by PAD4, 50 µM inhibitor (0 µM: 81): 22%
  conversion of 0708-30 by PAD4, 100 µM inhibitor (0 µM: 81): 13%
caspase-3
  IC50 values (µM), caspase-3 activity assay: > 1000 µM
Creatine kinase
  IC50 values (µM), creatine kinase activity assay: 1000 µM
transglutaminase
  IC50 values (µM), transglutaminase activity assay: > 1000 µM
papain
  IC50 values (µM), papain activity assay: > 2000 µM
Recombinant human PAD2 [8]
  Inhibition of PAD2: value at 10 µM inhibitor (0 µM: 76): 25%
  Inhibition of PAD2: value at 20 µM inhibitor (0 µM: 76): 14%
  Inhibition of PAD2: value at 40 µM inhibitor (0 µM: 76): 8%
  Inhibition of PAD2: value at 80 µM inhibitor (0 µM: 76): 4%
Recombinant human PAD4 [9]
  Inhibition of PAD4: value at 10 µM inhibitor (0 µM: 67): 51%
  Inhibition of PAD4: value at 20 µM inhibitor (0 µM: 67): 38%
  Inhibition of PAD4: value at 40 µM inhibitor (0 µM: 67): 27%
  Inhibition of PAD4: value at 80 µM inhibitor (0 µM: 67): 18%

## Ac-GD[O(CA)]GS [CXP5.2-078]
Recombinant human PAD2 [3]
  IC50 values (µM), colorimetric assay: > 500 µM
Recombinant human PAD4 [4]
  IC50 values (µM), colorimetric assay: 18 µM
[5]
  IC50 values (µM), hDDAH-1 activity assay: 1200 µM
caspase-3
  IC50 values (µM), caspase-3 activity assay: 1000 µM
Creatine kinase
  IC50 values (µM), creatine kinase activity assay: 780 µM
transglutaminase
  IC50 values (µM), transglutaminase activity assay: 730 µM
papain
  IC50 values (µM), papain activity assay: 1050 µM
